“And” between values parts separate entries of the source, which are not always exact repeats. Equal entries are not always repeated.
Experiments:
[1] = biological target: T1, human NKG2D (recombinant mFc-tagged dimer) (human, UniProt P26718 78-216); assay: SPR, high concentration sample, control
T1 construct: also called hNKG2D
T1 sequence (looked up): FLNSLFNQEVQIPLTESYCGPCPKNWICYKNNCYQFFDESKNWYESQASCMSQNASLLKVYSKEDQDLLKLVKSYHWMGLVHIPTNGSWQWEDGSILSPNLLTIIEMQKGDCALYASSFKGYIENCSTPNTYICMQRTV

human CD16a V158 [2] = biological target: T2, human CD16a V158 (human, UniProt P08637 17-208); assay: SPR, kinetic fit
T2 construct: also called hCD16aV; hCD16a V158
T2 sequence (P08637 17-208 F176V limits assumed): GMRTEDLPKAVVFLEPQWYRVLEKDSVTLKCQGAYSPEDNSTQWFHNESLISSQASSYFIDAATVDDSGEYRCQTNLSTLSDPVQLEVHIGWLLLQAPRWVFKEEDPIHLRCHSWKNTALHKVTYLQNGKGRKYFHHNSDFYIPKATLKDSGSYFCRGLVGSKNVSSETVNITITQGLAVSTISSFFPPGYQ

cynomolgus FcRn [3] = biological target: T3, cynomolgus FcRn (cynomolgus, UniProt Q8SPV9 24-297; Q8SPW0 21-119); assay: SPR, pH 6.0, steady state; pH 6.0; second replicate
T3 construct: also called Cyno FcRn
T3 sequence (Q8SPV9 24-297 limits assumed, chain 1 of 2): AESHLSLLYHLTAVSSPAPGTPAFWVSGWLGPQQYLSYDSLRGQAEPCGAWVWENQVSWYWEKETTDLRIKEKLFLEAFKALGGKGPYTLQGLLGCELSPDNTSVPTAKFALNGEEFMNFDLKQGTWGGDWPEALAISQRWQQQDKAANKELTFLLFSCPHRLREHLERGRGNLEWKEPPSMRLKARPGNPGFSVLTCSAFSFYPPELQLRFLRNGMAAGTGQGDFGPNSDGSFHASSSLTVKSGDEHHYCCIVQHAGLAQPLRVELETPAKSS
T3 sequence (Q8SPW0 21-119 limits assumed, chain 2 of 2): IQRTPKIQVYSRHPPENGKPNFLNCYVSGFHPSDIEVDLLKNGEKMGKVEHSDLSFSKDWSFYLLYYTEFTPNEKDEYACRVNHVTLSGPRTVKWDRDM

[4] = biological target: T1, human NKG2D (recombinant mFc-tagged …); assay: SPR, kinetic fit, after 4 weeks at 40 °C
human CD16a V158 [5] = biological target: T2, human CD16a V158; assay: SPR, summary table
human CD32a H131 = biological target: T4, human CD32a H131 (human, UniProt P12318 36-218, limits assumed); assay: SPR, summary table
T4 sequence (looked up): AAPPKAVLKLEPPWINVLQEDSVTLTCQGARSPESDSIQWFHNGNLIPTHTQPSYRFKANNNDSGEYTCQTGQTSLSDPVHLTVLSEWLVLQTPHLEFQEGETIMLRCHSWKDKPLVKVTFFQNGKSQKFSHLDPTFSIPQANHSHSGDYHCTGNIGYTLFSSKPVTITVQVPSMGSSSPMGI

cynomolgus CD16 = biological target: T5, cynomolgus CD16 (cynomolgus, UniProt Q8SPW2 17-208, limits assumed); assay: SPR, summary table
T5 construct: also called Cyno CD16; cynomolgus FcγRIII
T5 sequence (Q8SPW2 17-208 limits assumed): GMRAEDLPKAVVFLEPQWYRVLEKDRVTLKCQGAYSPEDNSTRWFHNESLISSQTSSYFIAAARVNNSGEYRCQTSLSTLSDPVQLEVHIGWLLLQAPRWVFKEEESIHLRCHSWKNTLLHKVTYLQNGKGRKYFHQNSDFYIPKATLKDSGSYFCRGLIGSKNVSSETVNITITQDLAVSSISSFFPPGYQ

human CD64 = biological target: T6, human CD64 (human, UniProt P12314 16-288, limits assumed); assay: SPR, summary table
T6 construct: also called FcγRI
T6 sequence (P12314 16-288 limits assumed): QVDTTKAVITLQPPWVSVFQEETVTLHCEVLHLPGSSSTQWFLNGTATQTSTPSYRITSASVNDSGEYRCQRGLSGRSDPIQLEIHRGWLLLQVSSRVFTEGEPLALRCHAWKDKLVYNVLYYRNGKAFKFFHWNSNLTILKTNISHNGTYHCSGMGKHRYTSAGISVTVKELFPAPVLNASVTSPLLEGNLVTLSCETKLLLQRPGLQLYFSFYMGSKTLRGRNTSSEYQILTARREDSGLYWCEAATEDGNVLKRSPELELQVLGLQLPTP

human CD16a F158 = human CD16a F158 (human, UniProt P08637 17-208); assay: SPR, summary table
human CD16a F158, sequence (P08637 17-208 limits assumed): as the sequence (P08637 17-208 F176V limits assumed) above, with V160F counted along it

human CD16b = biological target: T7, human CD16b (human, UniProt O75015 17-200, limits assumed); assay: SPR, summary table
T7 construct: also called FcγRIIIb
T7 sequence (O75015 17-200 limits assumed): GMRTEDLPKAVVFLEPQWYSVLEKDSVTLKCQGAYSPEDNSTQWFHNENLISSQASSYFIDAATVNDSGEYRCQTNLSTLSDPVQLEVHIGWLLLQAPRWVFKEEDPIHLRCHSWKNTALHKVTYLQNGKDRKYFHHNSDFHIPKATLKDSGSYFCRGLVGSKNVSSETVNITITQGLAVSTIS

human CD32a R131 = biological target: T8, human CD32a R131 (human, UniProt P12318 36-218, limits assumed); assay: SPR, summary table
T8 construct: also called FcγRIIa R131
T8 sequence (looked up): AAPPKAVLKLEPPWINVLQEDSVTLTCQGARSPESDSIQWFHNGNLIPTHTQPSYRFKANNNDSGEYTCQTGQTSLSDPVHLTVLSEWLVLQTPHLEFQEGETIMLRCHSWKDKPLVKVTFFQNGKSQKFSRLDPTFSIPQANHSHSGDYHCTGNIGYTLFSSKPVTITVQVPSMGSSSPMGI

human CD32b = biological target: T9, human CD32b (human, UniProt P31994 46-217, limits assumed); assay: SPR, summary table
T9 construct: also called FcγRIIb
T9 sequence (looked up): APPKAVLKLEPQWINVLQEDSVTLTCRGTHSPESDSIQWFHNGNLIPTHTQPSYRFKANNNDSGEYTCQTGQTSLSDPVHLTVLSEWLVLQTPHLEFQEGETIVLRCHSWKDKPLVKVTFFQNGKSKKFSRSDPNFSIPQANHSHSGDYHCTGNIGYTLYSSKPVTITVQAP

[6] = biological target: T10, cynomolgus NKG2D (recombinant mFc-tagged dimer) (cynomolgus, UniProt P61252 78-216); assay: SPR, average
T10 construct: also called cyno NKG2D
T10 sequence (looked up): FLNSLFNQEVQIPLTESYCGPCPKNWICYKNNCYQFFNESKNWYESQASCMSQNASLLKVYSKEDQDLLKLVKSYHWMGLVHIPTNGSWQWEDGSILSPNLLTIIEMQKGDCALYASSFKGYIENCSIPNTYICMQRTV

human CD16a V158 [7] = biological target: T2, human CD16a V158; assay: SPR
[8] = biological target: T10, cynomolgus NKG2D (recombinant …); assay: SPR
[9] = biological target: T11, human BAFF-R expressed on cells (human, UniProt Q96RJ3 1-184); assay: flow cytometry, SUDHL-6 cells
T11 construct: Cell surface BAFF-R, endogenous on B cell lines and primary B cells or overexpressed on isogenic CHO cells; also called hBAFF-R; hBAFF-R-CHO

cynomolgus FcRn [10] = biological target: T3, cynomolgus FcRn; assay: SPR, pH 6.0, steady state; pH 6.0; fourth replicate
[11] = biological target: T12, cynomolgus monkey BAFF-R expressed on cells (cynomolgus monkey); assay: flow cytometry, cynomolgus BAFF-R CHO cells
T12 construct: whole, on cells; also called cBAFF-R; cynoBAFF-R
Source text: Isogenic cell lines overexpressing human and cynomolgus BAFF-R on the backbone of CHO cell line were designed.

[12] = biological target: T1, human NKG2D (recombinant mFc-tagged …); assay: SPR
Source text: (§1) NKG2D is a native dimer, therefore recombinant mFc-tagged NKG2D dimer was used for this experiment. Two different fits were utilized to obtain the equilibrium affinity data: steady state affinity fit and kinetic fit.

human FcRn = human FcRn (human, UniProt P55899 24-297; P61769 21-119); assay: SPR, pH 6.0, steady state; pH 6.0; second replicate
human FcRn, sequence (P55899 24-297 limits assumed, chain 1 of 2): as the sequence (Q8SPV9 24-297 limits assumed, chain 1 of 2) above, with D39N, Q44E, S99G, G189S, N190S, M217L, T269S counted along it
human FcRn, sequence (P61769 21-119 limits assumed, chain 2 of 2): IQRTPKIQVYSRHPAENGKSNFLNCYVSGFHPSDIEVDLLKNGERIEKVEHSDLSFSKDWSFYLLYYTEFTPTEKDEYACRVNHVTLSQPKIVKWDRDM

[13] = biological target: T1, human NKG2D (recombinant mFc-tagged …); assay: SPR, steady state fit
Source text: as §1

[14] = biological target: T10, cynomolgus NKG2D (recombinant …); assay: SPR, kinetics fit
Source text: Two different fits were utilized to obtain the equilibrium affinity data: steady state affinity fit and kinetic fit.

[15] = biological target: T1, human NKG2D (recombinant mFc-tagged …); assay: SPR, kinetics fit
Source text: as §1

B1: AB1424/AB1612 F3′ TriNKET (bispecific antibody, human IgG1, kappa)
chain: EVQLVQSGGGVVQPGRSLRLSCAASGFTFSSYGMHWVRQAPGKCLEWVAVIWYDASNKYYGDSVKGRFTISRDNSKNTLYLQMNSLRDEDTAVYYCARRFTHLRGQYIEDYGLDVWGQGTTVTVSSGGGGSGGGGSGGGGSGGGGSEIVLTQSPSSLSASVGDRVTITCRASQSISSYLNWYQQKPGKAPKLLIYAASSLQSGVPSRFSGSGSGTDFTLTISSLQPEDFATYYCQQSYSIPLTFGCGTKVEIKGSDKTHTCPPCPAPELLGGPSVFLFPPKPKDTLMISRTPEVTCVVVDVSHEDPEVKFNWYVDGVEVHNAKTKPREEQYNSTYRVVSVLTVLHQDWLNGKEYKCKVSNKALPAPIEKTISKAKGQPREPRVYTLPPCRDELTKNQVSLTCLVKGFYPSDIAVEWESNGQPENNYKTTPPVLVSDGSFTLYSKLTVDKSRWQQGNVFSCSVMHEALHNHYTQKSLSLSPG
heavy: EVQLVESGGGLVKPGGSLRLSCAASGFTFSSYSMNWVRQAPGKGLEWVSSISSSSSYIYYADSVKGRFTISRDNAKNSLYLQMNSLRAEDTAVYYCARGAPIGAAAGWFDPWGQGTLVTVSSASTKGPSVFPLAPSSKSTSGGTAALGCLVKDYFPEPVTVSWNSGALTSGVHTFPAVLQSSGLYSLSSVVTVPSSSLGTQTYICNVNHKPSNTKVDKKVEPKSCDKTHTCPPCPAPELLGGPSVFLFPPKPKDTLMISRTPEVTCVVVDVSHEDPEVKFNWYVDGVEVHNAKTKPREEQYNSTYRVVSVLTVLHQDWLNGKEYKCKVSNKALPAPIEKTISKAKGQPREPQVCTLPPSRDELTENQVSLTCLVKGFYPSDIAVEWESNGQPENNYKTTPPVLDSDGSFFLYSWLTVDKSRWQQGNVFSCSVMHEALHNHYTQKSLSLSPG
light: DIQMTQSPSSVSASVGDRVTITCRASQGISSWLAWYQQKPGKAPKLLIYAASSLQSGVPSRFSGSGSGTDFTLTISSLQPEDFATYYCQQGVSFPRTFGGGTKVEIKRTVAAPSVFIFPPSDEQLKSGTASVVCLLNNFYPREAKVQWKVDNALQSGNSQESVTEQDSKDSTYSLSSTLTLSKADYEKHKVYACEVTHQGLSSPVTKSFNRGEC
notes: Chain S: anti-BAFF-R scFv-CH2-CH3; chain H: anti-NKG2D VH-CH1-CH2-CH3; chain L: anti-NKG2D VL-CL; also called AB1612-002
koff [1]: 0.11 s⁻¹ | kon [1]: 220000 M⁻¹ s⁻¹ | Kd (human CD16a V158 [2]): 131 nM (2×) and 134 nM and 122 nM | Kd (cynomolgus FcRn [3]): 1000 nM | Kd [4]: 493 nM | Kd (human CD16a V158 [5]): 129 nM | Kd (human CD32a H131): 1000 nM | Kd (cynomolgus CD16): 271 nM | Kd (human CD64): 3.2 nM | Kd (human CD16a F158): 1350 nM | Kd (human CD16b): 6900 nM | Kd (human CD32a R131): 1400 nM | Kd (human CD32b): 5900 nM | koff [6]: 0.11 s⁻¹ | kon [6]: 200000 M⁻¹ s⁻¹ | koff (human CD16a V158 [7]): 0.014 s⁻¹ and 0.013 s⁻¹ | kon (human CD16a V158 [7]): 110000 M⁻¹ s⁻¹ and 100000 M⁻¹ s⁻¹ | koff [8]: 0.11 s⁻¹ and 0.1 s⁻¹ | kon [8]: 210000 M⁻¹ s⁻¹ and 200000 M⁻¹ s⁻¹ | EC50 [9]: 0.41 nM | Max FOB [9]: 19 fold over background | Kd (cynomolgus FcRn [10]): 1000 nM | EC50 [11]: 0.9 nM | Max FOB [11]: 141 fold over background | koff [12]: 0.11 s⁻¹ | kon [12]: 240000 M⁻¹ s⁻¹ and 230000 M⁻¹ s⁻¹ | Kd (human FcRn): 1000 nM | Kd [13]: 438 nM and 453 nM and 468 nM and 466 nM | Kd [14]: 609 nM and 617 nM and 572 nM and 587 nM | Kd [15]: 439 nM and 453 nM and 466 nM and 465 nM

Reference: patent publication US20240360223A1 (DRAGONFLY THERAPEUTICS, published 2024)
